Residue numbers refer to the chain shown, from its start.
B1: ePGDM13 (antibody, V domains shown)
VH: QAQLVQSGPEVRKPGTSVKVSCKNPGNTLTTYDLHWVRQVPGQGLQWMGWISHEGDKKVIVERFKAKVTIDWDRSTNTAYLQLSGLTSEDTAVYYCAKGSKHRLRDYALYDEDGALNWAVDVDYLANLEFWGQGTAVTVSS
VL: DIVLTQSPLSLSVTPGESASISCKSSHSLQHGDRNNYLAWYVQKPGRSPQLLLDLASERASGVPDRFSGSGSEKDFTLKISRVETEDVGTYYCMQGRESPWTFGQGTKVDIK
B2: ePGDM5 (antibody, V domains shown)
VH: B1 VH
VL: B1 VL with I2F, S26D, L53I, E73R, S81D, T85A
B3: ePGDM9 (antibody, V domains shown)
VH: B1 VH
VL: B1 VL with H27Q, Q30I, L53I, E73R

molecular target: HIV Env of isolate 1056_10_TA11_1826 (clade B) (HIV); test: cell-based or functional assay

First: B1
Second: B2
The “IC50 (µg/ml) with constrains” value of the first is 1.7-fold higher: 1.51 µg/mL for the first, 0.893 µg/mL for the second.

B3 was tested, and the “IC50 (µg/ml) with constrains” value was 0.903 µg/mL.

molecular target: HIV Env of isolate Ce0682_E4 (clade C) (HIV); test: cell-based or functional assay

Compared with B1, B2 is 2.2-fold lower in “IC50 (µg/ml) with constrains” value: 0.011 µg/mL for the first, 0.005 µg/mL for the second.

In the case of B3, the “IC50 (µg/ml) with constrains” value is reported as 0.005 µg/mL.

molecular target: HIV Env of isolate BJOX009000.02.4 (clade AE) (HIV); test: cell-based or functional assay

B1 and B2 are within 1.5-fold of each other in “IC50 (µg/ml) with constrains” value: 0.265 µg/mL for the first, 0.296 µg/mL for the second.

B3 was tested, and the “IC50 (µg/ml) with constrains” value was 0.234 µg/mL.

B1 and B2 are within 1.5-fold of each other in “IC80 (µg/ml) with constrains” value: 1.06 µg/mL for the first, 1.18 µg/mL for the second.

B3 was tested, and the “IC80 (µg/ml) with constrains” value was 0.936 µg/mL.

molecular target: HIV Env of isolate SC422661.8 (clade B) (HIV); test: cell-based or functional assay

B1 and B2 are within 1.5-fold of each other in “IC50 (µg/ml) with constrains” value: 1.56 µg/mL for the first, 1.33 µg/mL for the second.

B3 was tested, and the “IC50 (µg/ml) with constrains” value was 1.33 µg/mL.

molecular target: HIV Env of isolate SC05_8C11_2344 (clade B) (HIV); test: cell-based or functional assay

Going from B1 to B2, the “IC50 (µg/ml) with constrains” value rises from 2.36 µg/mL to 3.62 µg/mL (1.5-fold).

With B3 the “IC50 (µg/ml) with constrains” value was 1.06 µg/mL.

molecular target: HIV Env of isolate 6952.v1.c20 (clade CD) (HIV); test: cell-based or functional assay

Going from B1 to B2, the “IC50 (µg/ml) with constrains” value falls from 0.079 µg/mL to 0.033 µg/mL (2.4-fold).

For B3, the “IC50 (µg/ml) with constrains” value was 0.052 µg/mL.

molecular target: HIV Env of isolate CNE21 (clade BC) (HIV); test: cell-based or functional assay

Compared with B1, B2 is 2-fold higher in “IC50 (µg/ml) with constrains” value: 0.001 µg/mL for the first, 0.002 µg/mL for the second.

In the case of B3, the “IC50 (µg/ml) with constrains” value is reported as 0.002 µg/mL.

molecular target: HIV Env of isolate Q259.d2.17 (clade A) (HIV); test: cell-based or functional assay

Going from B1 to B2, the “IC50 (µg/ml) with constrains” value falls from 0.037 µg/mL to 0.013 µg/mL (2.8-fold).

B3 was tested, and the “IC50 (µg/ml) with constrains” value was 0.012 µg/mL.

Compared with B1, B2 is 2.9-fold lower in “IC80 (µg/ml) with constrains” value: 0.15 µg/mL for the first, 0.051 µg/mL for the second.

In the case of B3, the “IC80 (µg/ml) with constrains” value is reported as 0.048 µg/mL.

molecular target: HIV Env of isolate 1012_11_TC21_3257 (clade B) (HIV); test: cell-based or functional assay

B1 and B2 are within 1.5-fold of each other in “IC50 (µg/ml) with constrains” value: 0.065 µg/mL for the first, 0.076 µg/mL for the second.

For B3, the “IC50 (µg/ml) with constrains” value was 0.042 µg/mL.

molecular target: HIV Env of isolate Ce704809221_1B3 (clade C) (HIV); test: cell-based or functional assay

Going from B1 to B2, the “IC50 (µg/ml) with constrains” value falls from 0.339 µg/mL to 0.187 µg/mL (1.8-fold).

In the case of B3, the “IC50 (µg/ml) with constrains” value is reported as 0.135 µg/mL.

molecular target: HIV Env of isolate 1006_11_C3_1601 (clade B) (HIV); test: cell-based or functional assay

First: B1
Second: B2
The “IC50 (µg/ml) with constrains” value of the first is 1.7-fold higher: 0.826 µg/mL for the first, 0.473 µg/mL for the second.

B3 was tested, and the “IC50 (µg/ml) with constrains” value was 0.588 µg/mL.

molecular target: HIV Env of isolate Q461.e2 (clade A) (HIV); test: cell-based or functional assay

B1 and B2 are within 1.5-fold of each other in “IC50 (µg/ml) with constrains” value: 0.132 µg/mL for the first, 0.104 µg/mL for the second.

For B3, the “IC50 (µg/ml) with constrains” value was 0.06 µg/mL.

B1 and B2 are within 1.5-fold of each other in “IC80 (µg/ml) with constrains” value: 0.528 µg/mL for the first, 0.415 µg/mL for the second.

B3 was tested, and the “IC80 (µg/ml) with constrains” value was 0.24 µg/mL.

molecular target: HIV Env of isolate T257-31 (clade AG) (HIV); test: cell-based or functional assay

B1 and B2 are within 1.5-fold of each other in “IC50 (µg/ml) with constrains” value: 0.02 µg/mL for the first, 0.016 µg/mL for the second.

With B3 the “IC50 (µg/ml) with constrains” value was 0.019 µg/mL.

B1 and B2 are within 1.5-fold of each other in “IC80 (µg/ml) with constrains” value: 0.078 µg/mL for the first, 0.064 µg/mL for the second.

With B3 the “IC80 (µg/ml) with constrains” value was 0.076 µg/mL.

molecular target: HIV Env of isolate 89-F1_2_25 (clade CD) (HIV); test: cell-based or functional assay

B1 and B2 are the same in “IC50 (µg/ml) with constrains” value: 0.001 µg/mL for the first, 0.001 µg/mL for the second.

In the case of B3, the “IC50 (µg/ml) with constrains” value is reported as 0.001 µg/mL.

molecular target: HIV Env of isolate 6240_08_TA5_4622 (clade B) (HIV); test: cell-based or functional assay

First: B1
Second: B2
The “IC50 (µg/ml) with constrains” value of the first is 1.6-fold higher: 3.16 µg/mL for the first, 2.02 µg/mL for the second.

With B3 the “IC50 (µg/ml) with constrains” value was 1.65 µg/mL.

molecular target: HIV Env of isolate BJOX010000.06.2 (clade AE) (HIV); test: cell-based or functional assay

First: B1
Second: B2
The “IC50 (µg/ml) with constrains” value of the first is 1.8-fold higher: 0.979 µg/mL for the first, 0.536 µg/mL for the second.

For B3, the “IC50 (µg/ml) with constrains” value was 0.293 µg/mL.

Compared with B1, B2 is 1.8-fold lower in “IC80 (µg/ml) with constrains” value: 3.92 µg/mL for the first, 2.15 µg/mL for the second.

For B3, the “IC80 (µg/ml) with constrains” value was 1.17 µg/mL.

molecular target: HIV Env of isolate T251-18 (clade AG) (HIV); test: cell-based or functional assay

B1 and B2 cannot be ordered by “IC50 (µg/ml) with constrains” value: > 100 µg/mL for the first, > 100 µg/mL for the second.

B3 was tested, and the “IC50 (µg/ml) with constrains” value was > 100 µg/mL.

B1 and B2 cannot be ordered by “IC80 (µg/ml) with constrains” value: > 100 µg/mL for the first, > 100 µg/mL for the second.

In the case of B3, the “IC80 (µg/ml) with constrains” value is reported as > 100 µg/mL.

molecular target: HIV Env of isolate 3817.v2.c59 (clade CD) (HIV); test: cell-based or functional assay

Going from B1 to B2, the “IC50 (µg/ml) with constrains” value falls from 14 µg/mL to 0.232 µg/mL (60-fold).

In the case of B3, the “IC50 (µg/ml) with constrains” value is reported as 0.16 µg/mL.

molecular target: HIV Env of isolate C3347.c11 (clade AE) (HIV); test: cell-based or functional assay

Going from B1 to B2, the “IC50 (µg/ml) with constrains” value falls from 0.009 µg/mL to 0.005 µg/mL (1.8-fold).

For B3, the “IC50 (µg/ml) with constrains” value was 0.003 µg/mL.

First: B1
Second: B2
The “IC80 (µg/ml) with constrains” value of the first is 1.8-fold higher: 0.037 µg/mL for the first, 0.021 µg/mL for the second.

B3 was tested, and the “IC80 (µg/ml) with constrains” value was 0.011 µg/mL.

molecular target: HIV Env of isolate 1394C9G1(Rev-) (clade C) (HIV); test: cell-based or functional assay

Going from B1 to B2, the “IC50 (µg/ml) with constrains” value falls from 0.003 µg/mL to 0.002 µg/mL (1.5-fold).

For B3, the “IC50 (µg/ml) with constrains” value was 0.001 µg/mL.

molecular target: HIV Env of isolate 6480.v4.c25 (clade CD) (HIV); test: cell-based or functional assay

B1 and B2 cannot be ordered by “IC50 (µg/ml) with constrains” value: > 100 µg/mL for the first, > 100 µg/mL for the second.

For B3, the “IC50 (µg/ml) with constrains” value was > 100 µg/mL.

molecular target: HIV Env of isolate Ce1172_H1 (clade C) (HIV); test: cell-based or functional assay

Going from B1 to B2, the “IC50 (µg/ml) with constrains” value falls from 0.061 µg/mL to 0.016 µg/mL (3.8-fold).

For B3, the “IC50 (µg/ml) with constrains” value was 0.027 µg/mL.

molecular target: HIV Env of isolate T278-50 (clade AG) (HIV); test: cell-based or functional assay

First: B1
Second: B2
The “IC50 (µg/ml) with constrains” value of the first is 1.5-fold higher: 1.6 µg/mL for the first, 1.06 µg/mL for the second.

B3 was tested, and the “IC50 (µg/ml) with constrains” value was 0.506 µg/mL.

molecular target: HIV Env of isolate CAP45.2.00.G3 (clade C) (HIV); test: cell-based or functional assay

Compared with B1, B2 is 2-fold lower in “IC50 (µg/ml) with constrains” value: 0.002 µg/mL for the first, 0.001 µg/mL for the second.

With B3 the “IC50 (µg/ml) with constrains” value was 0.001 µg/mL.

molecular target: HIV Env of isolate T235-47 (clade AG) (HIV); test: cell-based or functional assay

B1 and B2 are the same in “IC50 (µg/ml) with constrains” value: 0.005 µg/mL for the first, 0.005 µg/mL for the second.

B3 was tested, and the “IC50 (µg/ml) with constrains” value was 0.004 µg/mL.

B1 and B2 are within 1.5-fold of each other in “IC80 (µg/ml) with constrains” value: 0.019 µg/mL for the first, 0.022 µg/mL for the second.

With B3 the “IC80 (µg/ml) with constrains” value was 0.017 µg/mL.

molecular target: HIV Env of isolate R1166.c01 (clade AE) (HIV); test: cell-based or functional assay

B1 and B2 are within 1.5-fold of each other in “IC50 (µg/ml) with constrains” value: 0.194 µg/mL for the first, 0.166 µg/mL for the second.

With B3 the “IC50 (µg/ml) with constrains” value was 0.215 µg/mL.

B1 and B2 are within 1.5-fold of each other in “IC80 (µg/ml) with constrains” value: 0.777 µg/mL for the first, 0.664 µg/mL for the second.

B3 was tested, and the “IC80 (µg/ml) with constrains” value was 0.86 µg/mL.

molecular target: HIV Env of isolate X1632_S2_B10 (clade G) (HIV); test: cell-based or functional assay

B1 and B2 are the same in “IC50 (µg/ml) with constrains” value: 0.003 µg/mL for the first, 0.003 µg/mL for the second.

In the case of B3, the “IC50 (µg/ml) with constrains” value is reported as 0.003 µg/mL.
